Data published in US8993714B2, “Streptavidin macromolecular adaptor and complexes thereof” (Imiplex LLC, priority 2007, dated 2015).

Key:
[1] = Zarembinski et al. 1998; cited from earlier work
[2] = Binding of purified MJ0577 to nucleotide mimicking resin Cibacron Blue; conditions: 25 mM sodium phosphate buffer pH 7.6
Experimental: (§1) The structure of MJ0577 was determined in the context of a structural genomics project aimed at elucidating protein function through 3D structural studies. […] Because the nucleotide was not added to buffers used during purification and crystallization, the authors concluded that ATP was scavenged from the growth media. […] Because the purification protocol developed here includes heating and dialysis at pH 5.2 steps, we believed that it was possible that the protein would be isolated as the ATP-free form. To test this hypothesis, the affinity of purified MJ0577 for the nucleotide mimicking resin, Cibacron Blue, was tested following the procedure successfully applied in the purification of an MJ0577 structural relative, E. coli YnaF (Saveanu et al. 2002). […] MJ0577 was dialyzed overnight against 8 M guanidinium HCl (GuHCl) 0.2 M TRIS pH 8.2, 5 mM DTT, then dialyzed overnight against 8 M urea, and finally equilibrated to non-denaturing conditions by dialysis against 25 mM sodium phosphate buffer pH 7.6. In a separate experiment, MJ0577 was dialyzed overnight against 2 M GuHCl in 25 mM L-histidine pH 5.6, 2 M GuHCl in 25 mM CHES pH 9.8, and 2 M GuHCl in 25 mM sodium phosphate buffer pH 7.8, 20% DMSO. Half of each sample was then heated at 40° C. for one hour. […] Such results can enable the ready establishment of proper conditions for a biotin-ATP substituted SAMA.

[3] = Binding of MJ0577 to ATP immobilized on a resin via the g-phosphate, analysis by PAGE; conditions: after dialysis against GuHCl/urea
Experimental: as §1

B1: MJ0577: protein dimer isolated from the thermostable bacterium Methanococcus jannaschii, 162 residues, SEQ ID NO: 11; SAMA template (protein, listed as Methanococcus jannaschii)
chain: MSVMYKKILYPTDFSETAEIALKHVKAFKTLKAEEVILLHVIDEREIKKRDIFSLLLGVAGLNKSVEEFENELKNKLTEEAKNKMENIKKELEDVGFKVKDIIVVGIPHEEIVKIAEDEGVDIIIMGSHGKTNLKEILLGSVTENVIKKSNKPVLVVKRKNS
modifications: dimer
notes: SAMA template
thermostable to [1]: at least 80 °C | binding to Cibacron Blue resin [2]: No binding was observed | interaction with ATP resin [3]: essentially no interaction
